Measurements: IntAct's records for PubMed 28514442

B1: WASH complex subunit 5 (Homo sapiens), Q12768 (parent)
chain: MLDFLAENNLCGQAILRIVSCGNAIIAELLRLSEFIPAVFRLKDRADQQKYGDIIFDFSYFKGPELWESKLDAKPELQDLDEEFRENNIEIVTRFYLAFQSVHKYIVDLNRYLDDLNEGVYIQQTLETVLLNEDGKQLLCEALYLYGVMLLVIDQKIEGEVRERMLVSYYRYSAARSSADSNMDDICKLLRSTGYSSQPGAKRPSNYPESYFQRVPINESFISMVIGRLRSDDIYNQVSAYPLPEHRSTALANQAAMLYVILYFEPSILHTHQAKMREIVDKYFPDNWVISIYMGITVNLVDAWEPYKAAKTALNNTLDLSNVREQASRYATVSERVHAQVQQFLKEGYLREEMVLDNIPKLLNCLRDCNVAIRWLMLHTADSACDPNNKRLRQIKDQILTDSRYNPRILFQLLLDTAQFEFILKEMFKQMLSEKQTKWEHYKKEGSERMTELADVFSGVKPLTRVEKNENLQAWFREISKQILSLNYDDSTAAGRKTVQLIQALEEVQEFHQLESNLQVCQFLADTRKFLHQMIRTINIKEEVLITMQIVGDLSFAWQLIDSFTSIMQESIRVNPSMVTKLRATFLKLASALDLPLLRINQANSPDLLSVSQYYSGELVSYVRKVLQIIPESMFTSLLKIIKLQTHDIIEVPTRLDKDKLRDYAQLGPRYEVAKLTHAISIFTEGILMMKTTLVGIIKVDPKQLLEDGIRKELVKRVAFALHRGLIFNPRAKPSELMPKLKELGATMDGFHRSFEYIQDYVNIYGLKIWQEEVSRIINYNVEQECNNFLRTKIQDWQSMYQSTHIPIPKFTPVDESVTFIGRLCREILRITDPKMTCHIDQLNTWYDMKTHQEVTSSRLFSEIQTTLGTFGLNGLDRLLCFMIVKELQNFLSMFQKIILRDRTVQDTLKTLMNAVSPLKSIVANSNKIYFSAIAKTQKIWTAYLEAIMKVGQMQILRQQIANELNYSCRFDSKHLAAALENLNKALLADIEAHYQDPSLPYPKEDNTLLYEITAYLEAAGIHNPLNKIYITTKRLPYFPIVNFLFLIAQLPKLQYNKNLGMVCRKPTDPVDWPPLVLGLLTLLKQFHSRYTEQFLALIGQFICSTVEQCTSQKIPEIPADVVGALLFLEDYVRYTKLPRRVAEAHVPNFIFDEFRTVL

Variants of: B1
Conditions: with pcna_human PCNA

Row | Variant | effect of a mutation on the interaction
1 | V626F | with no effect
2 | L619F | with no effect
3 | N471D | with no effect
